# Assay results: PMC3118390, “PKC isoforms interact with and phosphorylate DNMT1” (BMC Biology, 2011)
# T1: recombinant PKCζ (human, UniProt Q05513 1-592)
# T1 construct: also called rec; PKCζ
# T1 sequence (looked up): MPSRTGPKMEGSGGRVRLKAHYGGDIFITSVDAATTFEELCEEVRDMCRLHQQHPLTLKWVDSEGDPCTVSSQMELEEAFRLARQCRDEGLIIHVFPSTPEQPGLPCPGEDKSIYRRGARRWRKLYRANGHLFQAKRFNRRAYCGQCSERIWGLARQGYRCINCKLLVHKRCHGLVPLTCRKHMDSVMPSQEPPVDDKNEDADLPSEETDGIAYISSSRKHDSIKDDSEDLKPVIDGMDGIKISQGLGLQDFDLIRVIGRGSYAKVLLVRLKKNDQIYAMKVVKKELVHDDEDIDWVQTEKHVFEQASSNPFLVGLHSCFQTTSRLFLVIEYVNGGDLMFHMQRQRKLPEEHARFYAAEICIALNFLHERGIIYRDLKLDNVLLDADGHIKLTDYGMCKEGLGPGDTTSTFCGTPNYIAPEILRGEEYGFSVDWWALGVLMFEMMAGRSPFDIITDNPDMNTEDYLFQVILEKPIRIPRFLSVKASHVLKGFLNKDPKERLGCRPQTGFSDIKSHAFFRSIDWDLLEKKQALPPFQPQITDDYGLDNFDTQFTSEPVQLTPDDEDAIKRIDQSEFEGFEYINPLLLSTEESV
# Target: T1, recombinant PKCζ
# Assay: pull-down; GST fusion DNMT1 fragments on glutathione beads, pre-incubated with 100 μg/ml BSA; 10 ng recombinant PKCζ, 4°C, one hour; binding buffer 50 mM Tris pH 7.5, 28 μM ZnCl2, 1% Triton X-100, 220 mM NaCl, 10% glycerol; washes with 500 mM NaCl; blot with a PKCζ antibody
# Details: both partners purified
row,binding result,Binder
1,binds,"GST fusion DNMT1 fragment 1374 to 1616 (domain or fragment, human, UniProt P26358 1374-1616, looked up, source: E. coli BL21, purified on glutathione-Sepharose beads) LPEVRNGASALEISYNGEPQSWFQRQLRGAQYQPILRDHICKDMSALVAARMRHIPLAPGSDWRDLPNIEVRLSDGTMARKLRYTHHDRKNGRSSSGALRGVCSCVEAGKACDPAARQFNTLIPWCLPHTGNRHNHWAGLYGRLEWDGFFSTTVTNPEPMGKQGRVLHPEQHRVVSVRECARSQGFPDTYRLFGNILDKHRQVGNAVPPPLAKAIGLEIKLCMLAKARESASAKIKEEEAAKD"
2,binds,"GST fusion DNMT1 fragment 1 to 446 (domain or fragment, human, UniProt P26358 1-446, looked up, DNA methyltransferase 1 (DNMT1), human, amino acids 1-446; also called N-terminal domain (amino acids 1-446) of DNMT1; source: E. coli BL21, purified on glutathione-Sepharose beads) MPARTAPARVPTLAVPAISLPDDVRRRLKDLERDSLTEKECVKEKLNLLHEFLQTEIKNQLCDLETKLRKEELSEEGYLAKVKSLLNKDLSLENGAHAYNREVNGRLENGNQARSEARRVGMADANSPPKPLSKPRTPRRSKSDGEAKPEPSPSPRITRKSTRQTTITSHFAKGPAKRKPQEESERAKSDESIKEEDKDQDEKRRRVTSRERVARPLPAEEPERAKSGTRTEKEEERDEKEEKRLRSQTKEPTPKQKLKEEPDREARAGVQADEDEDGDEKDEKKHRSQPKDLAAKRRPEEKEPEKVNPQISDEKDEDEKEEKRRKTTPKEPTEKKMARAKTVMNSKTHPPKCIQCGQYLDDPDLKYGQHPPDAVDEPQMLTNEKLSIFDANESGFESYEALPQHKLTCFSVYCKHGHLCPIDTGLIEKNIELFFSGSAKPIYDDD"
3,binds,"GST fusion DNMT1 fragment 1081 to 1409 (domain or fragment, human, UniProt P26358 1081-1409, looked up, source: E. coli BL21, purified on glutathione-Sepharose beads) NRFYFLEAYNAKSKSFEDPPNHARSPGNKGKGKGKGKGKPKSQACEPSEPEIEIKLPKLRTLDVFSGCGGLSEGFHQAGISDTLWAIEMWDPAAQAFRLNNPGSTVFTEDCNILLKLVMAGETTNSRGQRLPQKGDVEMLCGGPPCQGFSGMNRFNSRTYSKFKNSLVVSFLSYCDYYRPRFFLLENVRNFVSFKRSMVLKLTLRCLVRMGYQCTFGVLQAGQYGVAQTRRRAIILAAAPGEKLPLFPEPLHVFAPRACQLSVVVDDKKFVSNITRLSSGPFRTITVRDTMSDLPEVRNGASALEISYNGEPQSWFQRQLRGAQYQPIL"
